Experimental data as given in the supplement of paper PMC10065799, “High-throughput profiling of sequence recognition by tyrosine kinases and SH2 domains using bacterial peptide display” (eLife, 2023).

How the values were obtained:
MERTK = MERTK (UniProt Q12866); assay: phosphorylation enrichment, bacterial display (enrichment ratio); higher = better substrate or ligand; peptides without Tyr show the background
Fer (mouse) = assay: as above
AncSZ = assay: as above
FGFR1 = FGFR1 (UniProt P11362); assay: as above
FGFR3 = FGFR3 (UniProt P22607); assay: as above
EPHB1 = EPHB1 (UniProt P54762); assay: as above
c-Src = assay: as above
Fes = Fes (UniProt P07332); assay: as above
Fyn = Fyn (UniProt P06241); assay: as above
Hck = Hck (UniProt P08631); assay: as above
c-Abl (mouse) = assay: as above
EPHB2 = EPHB2 (UniProt P29323); assay: as above
Jak2 = Jak2 (UniProt O60674); assay: as above
SHP2-C SH2 = assay: SH2 binding enrichment of the phosphorylated peptide, bacterial display (enrichment ratio); higher = better substrate or ligand; peptides without Tyr show the background
Grb2 SH2 = Grb2 SH2 (UniProt P62993); assay: as above
c-Src SH2 = assay: as above
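For SH2 binding enrichment of the phosphorylated peptide, bacterial display in this document: peptide library displayed on the E. coli surface as eCPX fusions, selected cells deep-sequenced, score is each peptide's frequency after selection divided by its frequency in the input.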
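For phosphorylation enrichment, bacterial display in this document: 11-residue human phosphosite peptides and single-mutation variants displayed on the E. coli surface, counted by deep sequencing, each peptide's frequency after selection divided by its frequency in the unselected input library; frequency after pTyr selection over input frequency; kinase dosed for 20-30% of maximal phosphorylation in three min.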

Sequence of FGFR3 (P22607 whole entry, looked up): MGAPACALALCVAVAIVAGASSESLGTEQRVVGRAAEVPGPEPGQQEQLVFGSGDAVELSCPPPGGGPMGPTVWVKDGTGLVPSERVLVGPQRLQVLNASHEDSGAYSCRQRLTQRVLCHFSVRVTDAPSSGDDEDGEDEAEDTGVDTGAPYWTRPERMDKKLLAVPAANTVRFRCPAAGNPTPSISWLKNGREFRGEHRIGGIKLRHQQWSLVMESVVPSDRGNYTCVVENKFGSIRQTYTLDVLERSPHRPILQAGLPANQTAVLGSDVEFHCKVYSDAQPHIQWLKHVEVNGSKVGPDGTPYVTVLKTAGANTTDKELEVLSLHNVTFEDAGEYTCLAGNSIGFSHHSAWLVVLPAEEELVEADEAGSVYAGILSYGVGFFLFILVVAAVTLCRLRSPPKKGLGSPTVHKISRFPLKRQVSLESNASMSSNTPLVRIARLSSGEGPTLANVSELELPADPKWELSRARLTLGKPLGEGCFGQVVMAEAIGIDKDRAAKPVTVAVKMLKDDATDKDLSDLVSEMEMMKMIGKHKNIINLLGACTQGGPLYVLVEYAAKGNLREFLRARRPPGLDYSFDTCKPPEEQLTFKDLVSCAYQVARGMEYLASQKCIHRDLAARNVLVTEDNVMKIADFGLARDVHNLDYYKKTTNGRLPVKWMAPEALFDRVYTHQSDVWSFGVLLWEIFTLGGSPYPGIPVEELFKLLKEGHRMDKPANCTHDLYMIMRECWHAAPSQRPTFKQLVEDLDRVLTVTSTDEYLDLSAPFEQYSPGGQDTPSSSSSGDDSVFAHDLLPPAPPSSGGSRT
Sequence of EPHB1 (P54762 whole entry, looked up): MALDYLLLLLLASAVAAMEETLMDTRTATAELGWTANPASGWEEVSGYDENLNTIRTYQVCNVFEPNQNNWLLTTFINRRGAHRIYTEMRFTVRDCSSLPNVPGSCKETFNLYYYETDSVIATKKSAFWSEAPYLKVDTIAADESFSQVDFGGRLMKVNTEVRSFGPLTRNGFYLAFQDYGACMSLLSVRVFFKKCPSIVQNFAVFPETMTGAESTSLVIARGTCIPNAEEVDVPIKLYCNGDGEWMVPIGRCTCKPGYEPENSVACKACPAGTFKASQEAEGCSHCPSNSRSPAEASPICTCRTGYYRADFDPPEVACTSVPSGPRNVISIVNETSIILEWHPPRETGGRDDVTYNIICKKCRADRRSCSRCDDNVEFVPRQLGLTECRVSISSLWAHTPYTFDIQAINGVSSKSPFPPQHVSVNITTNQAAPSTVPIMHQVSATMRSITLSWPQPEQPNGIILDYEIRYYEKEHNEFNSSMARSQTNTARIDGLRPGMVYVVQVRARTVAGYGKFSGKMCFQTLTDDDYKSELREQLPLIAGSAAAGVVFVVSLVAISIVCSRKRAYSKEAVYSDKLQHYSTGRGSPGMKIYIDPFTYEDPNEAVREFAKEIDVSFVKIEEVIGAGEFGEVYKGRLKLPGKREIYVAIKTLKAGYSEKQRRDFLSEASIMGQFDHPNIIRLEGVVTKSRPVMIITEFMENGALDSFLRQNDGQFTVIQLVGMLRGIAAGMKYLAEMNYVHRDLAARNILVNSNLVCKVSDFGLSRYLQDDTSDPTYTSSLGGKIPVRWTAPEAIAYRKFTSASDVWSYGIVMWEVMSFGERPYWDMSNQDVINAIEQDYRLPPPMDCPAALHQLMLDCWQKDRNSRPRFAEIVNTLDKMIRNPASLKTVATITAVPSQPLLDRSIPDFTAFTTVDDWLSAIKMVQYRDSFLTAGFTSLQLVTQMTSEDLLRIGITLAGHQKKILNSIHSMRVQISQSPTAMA
Sequence of Jak2 (O60674 whole entry, looked up): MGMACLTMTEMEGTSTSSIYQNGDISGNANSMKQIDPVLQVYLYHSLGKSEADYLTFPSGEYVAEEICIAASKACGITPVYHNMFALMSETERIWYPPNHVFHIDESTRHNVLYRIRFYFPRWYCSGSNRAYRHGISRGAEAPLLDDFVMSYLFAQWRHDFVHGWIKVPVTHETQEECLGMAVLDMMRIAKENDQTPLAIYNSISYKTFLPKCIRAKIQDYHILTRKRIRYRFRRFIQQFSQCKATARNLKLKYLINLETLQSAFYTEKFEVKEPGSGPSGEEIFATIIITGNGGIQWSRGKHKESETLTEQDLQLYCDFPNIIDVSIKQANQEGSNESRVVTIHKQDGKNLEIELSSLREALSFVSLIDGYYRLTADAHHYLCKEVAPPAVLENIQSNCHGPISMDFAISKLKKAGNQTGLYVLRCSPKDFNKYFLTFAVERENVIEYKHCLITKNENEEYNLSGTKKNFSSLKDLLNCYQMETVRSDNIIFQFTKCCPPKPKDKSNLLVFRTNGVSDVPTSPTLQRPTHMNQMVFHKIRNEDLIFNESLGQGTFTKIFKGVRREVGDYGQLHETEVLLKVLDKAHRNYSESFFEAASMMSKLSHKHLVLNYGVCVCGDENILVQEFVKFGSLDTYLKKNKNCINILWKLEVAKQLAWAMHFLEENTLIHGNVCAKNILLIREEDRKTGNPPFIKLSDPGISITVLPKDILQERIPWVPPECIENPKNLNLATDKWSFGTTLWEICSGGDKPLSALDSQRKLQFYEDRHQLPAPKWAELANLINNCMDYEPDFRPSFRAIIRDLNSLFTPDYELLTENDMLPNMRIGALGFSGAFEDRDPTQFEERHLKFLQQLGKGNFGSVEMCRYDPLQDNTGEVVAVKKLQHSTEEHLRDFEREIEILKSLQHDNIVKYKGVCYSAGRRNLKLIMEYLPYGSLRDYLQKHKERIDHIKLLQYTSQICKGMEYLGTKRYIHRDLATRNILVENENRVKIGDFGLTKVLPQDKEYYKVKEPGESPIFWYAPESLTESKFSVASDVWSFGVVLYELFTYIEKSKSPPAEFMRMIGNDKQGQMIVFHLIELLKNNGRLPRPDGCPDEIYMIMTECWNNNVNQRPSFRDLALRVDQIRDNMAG
Sequence of MERTK (Q12866 whole entry, looked up): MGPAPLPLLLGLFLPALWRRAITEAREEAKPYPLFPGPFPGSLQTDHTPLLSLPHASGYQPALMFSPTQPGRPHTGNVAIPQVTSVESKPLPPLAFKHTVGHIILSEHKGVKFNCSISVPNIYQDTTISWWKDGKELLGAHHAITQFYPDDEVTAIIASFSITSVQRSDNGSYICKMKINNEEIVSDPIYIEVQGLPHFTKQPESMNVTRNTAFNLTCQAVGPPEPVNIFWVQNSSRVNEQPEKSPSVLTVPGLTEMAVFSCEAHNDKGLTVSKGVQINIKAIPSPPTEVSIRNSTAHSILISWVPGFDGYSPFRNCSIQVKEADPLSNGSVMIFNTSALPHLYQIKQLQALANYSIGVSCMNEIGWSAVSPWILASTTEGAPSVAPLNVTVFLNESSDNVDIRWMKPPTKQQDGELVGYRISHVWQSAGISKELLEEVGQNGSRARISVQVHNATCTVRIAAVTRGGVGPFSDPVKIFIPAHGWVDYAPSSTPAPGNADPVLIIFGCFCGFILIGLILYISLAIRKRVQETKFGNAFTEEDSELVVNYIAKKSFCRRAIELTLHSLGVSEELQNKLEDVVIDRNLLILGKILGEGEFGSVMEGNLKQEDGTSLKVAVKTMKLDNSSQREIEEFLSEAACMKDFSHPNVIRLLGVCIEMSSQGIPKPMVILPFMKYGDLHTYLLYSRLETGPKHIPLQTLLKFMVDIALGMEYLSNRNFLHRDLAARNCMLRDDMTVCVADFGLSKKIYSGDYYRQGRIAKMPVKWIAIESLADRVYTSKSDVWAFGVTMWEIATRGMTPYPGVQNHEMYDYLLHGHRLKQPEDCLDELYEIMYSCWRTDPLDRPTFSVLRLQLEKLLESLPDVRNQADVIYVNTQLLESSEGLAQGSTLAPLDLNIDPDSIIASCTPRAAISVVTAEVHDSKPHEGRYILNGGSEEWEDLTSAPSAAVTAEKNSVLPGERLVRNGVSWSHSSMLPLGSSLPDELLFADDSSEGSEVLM
Sequence of Hck (P08631 whole entry, looked up): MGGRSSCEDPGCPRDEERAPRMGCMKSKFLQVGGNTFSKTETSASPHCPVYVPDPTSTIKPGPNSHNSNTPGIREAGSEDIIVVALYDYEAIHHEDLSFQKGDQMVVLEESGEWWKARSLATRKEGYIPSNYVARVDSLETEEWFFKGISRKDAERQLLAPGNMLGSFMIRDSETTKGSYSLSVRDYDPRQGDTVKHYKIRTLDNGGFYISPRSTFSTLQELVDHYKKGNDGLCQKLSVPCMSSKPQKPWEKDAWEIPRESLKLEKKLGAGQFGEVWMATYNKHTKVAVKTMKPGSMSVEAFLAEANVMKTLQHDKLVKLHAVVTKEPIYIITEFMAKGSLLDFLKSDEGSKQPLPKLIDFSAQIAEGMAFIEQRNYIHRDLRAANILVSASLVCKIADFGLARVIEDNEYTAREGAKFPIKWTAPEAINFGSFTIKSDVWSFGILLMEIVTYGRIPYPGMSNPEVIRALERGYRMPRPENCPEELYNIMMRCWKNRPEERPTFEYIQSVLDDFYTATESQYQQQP
Sequence of Fyn (P06241 whole entry, looked up): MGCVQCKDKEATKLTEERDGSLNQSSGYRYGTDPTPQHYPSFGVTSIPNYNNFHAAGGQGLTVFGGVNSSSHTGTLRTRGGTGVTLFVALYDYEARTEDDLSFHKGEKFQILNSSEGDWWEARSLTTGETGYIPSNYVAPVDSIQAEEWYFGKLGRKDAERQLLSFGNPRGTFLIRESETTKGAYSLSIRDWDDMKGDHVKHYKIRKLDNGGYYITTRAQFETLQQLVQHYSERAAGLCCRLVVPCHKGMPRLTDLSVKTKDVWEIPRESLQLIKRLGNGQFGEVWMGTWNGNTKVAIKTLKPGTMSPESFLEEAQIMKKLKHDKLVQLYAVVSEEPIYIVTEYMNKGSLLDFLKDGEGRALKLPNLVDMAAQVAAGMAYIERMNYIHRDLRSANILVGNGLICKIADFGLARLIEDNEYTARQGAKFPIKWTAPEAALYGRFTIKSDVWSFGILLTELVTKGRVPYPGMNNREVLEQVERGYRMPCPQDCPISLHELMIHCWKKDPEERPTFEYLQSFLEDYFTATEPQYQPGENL

SH2 binding enrichment (SHP2-C SH2) | SH2 binding enrichment (Grb2 SH2) | SH2 binding enrichment (c-Src SH2) | Sequence | phosphorylation enrichment (MERTK) | phosphorylation enrichment (Fer (mouse)) | phosphorylation enrichment (AncSZ) | phosphorylation enrichment (FGFR1) | phosphorylation enrichment (FGFR3) | phosphorylation enrichment (EPHB1) | phosphorylation enrichment (c-Src) | phosphorylation enrichment (Fes) | phosphorylation enrichment (Fyn) | phosphorylation enrichment (Hck) | phosphorylation enrichment (c-Abl (mouse)) | phosphorylation enrichment (EPHB2) | phosphorylation enrichment (Jak2)
0.67 | 0.901 | 0.47 | SEDSEYYRAFE [CASQ2_Y178_K180R] | 0.523 | 0.515 | 2.7 | 0.869 | 1.24 | 0.67 | 0.824 | 1.29 | 0.823 | 0.685 | 0.89 | 0.696 | 1.29
0.479 | 0.929 | 0.578 | PDGVEYLKNDP [GRIN3A_Y831] | 0.389 | 0.75 | 1.54 | 0.537 | 0.771 | 0.693 | 0.496 | 1.36 | 0.851 | 1 | 0.709 | 0.524 | 0.929
0.646 | 1.1 | 0.548 | KKRSVYIKVLF [CC2D2A_Y683_L684I] | 0.335 | 0.451 | 0.99 | 0.457 | 0.515 | 0.411 | 0.304 | 0.954 | 0.392 | 0.363 | 0.644 | 0.396 | 0.798
0.587 | 0.805 | 0.43 | GGGGSYNNFGN [HNRNPA1_Y312_D314N] | 0.308 | 0.378 | 0.545 | 0.362 | 0.403 | 0.379 | 0.325 | 0.564 | 0.388 | 0.435 | 0.335 | 0.416 | 0.463
0.642 | 0.977 | 0.557 | SSNPEYLSASD [INSR_Y999] | 0.476 | 0.491 | 1.12 | 0.498 | 0.695 | 0.514 | 0.458 | 1 | 0.531 | 0.462 | 0.719 | 0.594 | 0.961
0.785 | 0.931 | 0.278 | PPLMLYNPTTF [EGFR_Y270_YF] | 1 | 1.25 | 1.34 | 0.731 | 0.857 | 0.973 | 0.863 | 1.21 | 0.692 | 1.13 | 0.79 | 0.891 | 1.03
0.488 | 0.836 | 0.491 | TLQSMSGCDVG [HLA-B_Y123_Y123S] | 0.421 | 0.499 | 0.677 | 0.48 | 0.932 | 0.488 | 0.406 | 0.791 | 0.42 | 0.482 | 0.536 | 0.601 | 1.38
0.372 | 0.884 | 0.645 | PSRKDYETFQP [CTNND2_Y1154_YF] | 0.572 | 0.473 | 1.22 | 0.558 | 0.667 | 1.04 | 0.737 | 1.21 | 0.605 | 0.73 | 0.907 | 1.52 | 1.11
1.9 | 13.2 | 3.55 | VKANTYENYWP [GATM_Y100_K102N] | 2.41 | 1.2 | 0.893 | 1.17 | 0.818 | 7.05 | 3.07 | 0.81 | 2.59 | 1.65 | 0.801 | 7.05 | 0.994
0.656 | 0.772 | 0.517 | SVQVDYMKTIL [GLYATL2_Y127] | 0.428 | 0.644 | 0.908 | 0.505 | 0.643 | 0.527 | 0.446 | 0.776 | 0.407 | 0.517 | 0.642 | 0.611 | 0.791
1.5 | 1.56 | 1.08 | KRGIDYILWHM [FRMD1_Y225_R228W] | 0.548 | 0.591 | 1.04 | 1.33 | 0.984 | 0.765 | 0.414 | 1.15 | 0.5 | 0.536 | 0.788 | 0.824 | 1.06
1.37 | 0.77 | 0.629 | LNPVVYTLRNA [OR4C12_Y285] | 0.971 | 0.856 | 1.26 | 0.593 | 0.69 | 0.761 | 1.92 | 1.09 | 0.635 | 1.27 | 1.2 | 0.636 | 1.5
2.48 | 0.73 | 1.25 | LAETSYVTVLE [MAGEA1_Y276_K278T] | 0.708 | 0.67 | 1.65 | 0.915 | 1.31 | 0.674 | 0.496 | 1.65 | 0.702 | 0.862 | 0.903 | 0.968 | 1.02
0.742 | 0.725 | 0.54 | MKGDFYCFLAE [YWHAG_Y131_R132C_YF] | 2.81 | 0.644 | 1.32 | 1.02 | 1.5 | 1.18 | 0.592 | 1.58 | 0.456 | 0.695 | 0.971 | 0.88 | 1.29
0.581 | 0.713 | 0.38 | GPKSTYISSAG [GOLGA5_Y62_A67G] | 0.389 | 0.345 | 0.496 | 0.326 | 0.374 | 0.298 | 0.365 | 0.587 | 0.395 | 0.319 | 0.464 | 0.382 | 0.411
0.697 | 1.03 | 0.592 | YTGDIYSSSNL [LZTR1_Y141_N143S] | 3.2 | 2.91 | 0.917 | 0.613 | 0.626 | 1.27 | 4.97 | 0.74 | 6.08 | 7.13 | 1.97 | 1.53 | 0.504
